Data set [1] is described as follows: Dependence of NHase activity on the temperature. The data set is classed as biochemical. To be noted: for optimal temperature: 1 mM PPN. Here is the method:
As enzyme samples cell free crude extracts were used either of the heterologously or homologously produced enzyme. The substrate (1 mM 2-phenylpropionitrile (PPN) in 50 mM Tris/HCl pH 7.5)) was equilibrated at the indicated temperatures before the reaction was started by addition of 50 μl of enzyme sample. The activity was determined as described in example 4.
As enzyme samples lyophilized cells or a cell free crude extract were used. The samples were equilibrated for 5 min at the indicated temperatures before the reaction was started by addition of PPN to a final concentration of 1 mM. The activity was determined as described in example 4.
If not otherwise indicated enzyme samples were prepared as follows: the cells from 1 ml of the culture were washed with 50 mM Tris/HCl pH 7.5 and resuspended in 750 μl of the same buffer. This suspension was incubated at 30° C. in a thermomixer at 1000 rpm. The biotransformation was started by addition of the substrate 2-phenylpropionitrile (PPN) in 50 mM Tris/HCl pH 7.5. The concentration of the substrate was 1 mM, if not otherwise stated. The reaction was stopped after 1 min, 5 min or 10 min as indicated by addition of 1 M HCl. Cells were removed by centrifugation and the supernatant analysed by HPLC for the presence of the corresponding amide. The HPLC analysis was carried out on a system comprising a Surveyor 4 channel Pump, AutoSampler and UVNIS detector at 210 nm from Thermo Finnigan on a Grom-Sil 1200DS-3 cp 3 μm (125×4.6 mm) reverse phase column. As mobile phase, acetonitrile and 0.3% H3PO4 were used in a ratio of 50:50 at a flow of 0.7 ml/min, respectively.
The optimal temperatures for the NHases according to Seq ID No. 2 and 4 (Raoultella terrigena, 77.1) and Seq ID. No. 18 and 20 (Klebsiella oxytoca, 38.1.2) were determined to be at 45° C. (FIG. 23 and FIG. 24). At 55° C. a residual activity of about 20% was found for the enzyme according to Seq ID-No. 18 and 20 whereas at 60° C. no activity could be determined.

The nature of data set [2]: Determination of the isoelectric point (Phast-System). To be noted: purified enzyme. Format: physicochemical. The procedure: The IEP of the purified enzyme according to Seq. ID No. 2 and 4 was determined to be 3.5-3.6 using the Phast-System (Amersham Pharmacia).
The nature of data set [3]: Enantioselectivity of NHases towards rac-2-phenylpropionitrile (washed cells, chiral HPLC). Format: biochemical. To be noted: for E-value: kinetic resolution of rac-2-phenylpropionitrile; for enantiopreference: rac-2-phenylpropionitrile. The procedure:
For the determination of enantioselectivity towards rac-mandelonitrile and 2-phenylpropionitrile 40-50 mg of washed cells were resuspended in 1 ml of 50 mM Tris/HCl pH 7.5. 100 μl of cell suspension were mixed with 800 μl 50 mM Tris/HCl pH 7.5 and incubated at 30° C. in a thermomixer at 1000 rpm. The biotransformation was started by addition of 100 μl of 10 mM rac-mandelonitrile or rac-2-phenylpropionitrile in 50 mM Tris/HCl pH 7.5. The reaction was stopped by addition of 100 μl 1M HCl after 1, 5 or 10 min. Cells were removed by centrifugation and the supernatant analysed by chiral HPLC for the presence of mandeloamide and phenylpropionamide, respectively. rac-Mandeloamide was analysed on a HPLC comprising a Surveyor 4 channel Pump, AutoSampler and UVNIS detector at 210 nm from Thermo Finnigan on a Nucleodex β-OH column (Macherey & Nagel) using 50% methanol/water:water (40:60) as mobile phase at a flow rate of 0.7 ml/min. The apparent enantiomeric ratio (Eapp) of the conversion of mandelonitrile was calculated according to Straathof and Jongejan for asymmetric catalysis (see example 9). In case of 2-phenylpropionamide, the samples were lyophilized and resuspended in n-hexane: 2-propanol (80:20). Prior to injection, the samples were additionally dried with sodium sulfate and were centrifugated at 16,000 g for 5 min. The supernatants were analyzed using a Chiracel OD column (Daicel) on a Spectra System (AS3000, P2000, UV2000 at 210 nm) from Thermo Separation Products with n-hexane: 2-propanol (80:20) as mobile phase at a flow rate of 0.5 ml/min. The enantiomeric ratio (E) of the conversion of PPN was calculated according to Chen et al.

Changes are numbered by the printed parent chain.

B1: NHase Seq ID No. 2 and 4: nitrile hydratase of Raoultella terrigena strain 77.1, α-subunit SEQ ID NO 2, β-subunit SEQ ID NO 4 (protein)
alpha: MSHKHDHDHTEPPVDIELRVRALESLLQEKGLIDPAALDELIDTYEHKVGPRNGAQVVARAWSDPEYKRRLMENATAAISELGFSGIQGEDMLVVENTPDVHNVTVCTLCSCYPWPVLGLPPVWYKSAPYRSRIVIDPRGVLAEFGLHIPESKEIRVWDSSAELRYLVLPERPAGTDGWSEAQLSELISRDSMIGTGVVTAP
beta: MNGIHDLGGMHGFGPIPTEENEPYFHHEWERRVFPMFASLFVGVHFNVDEFRHSIECMPPADYLQSSYYEHWLHAFETLLLAKGVITVDELWGGAKPTLCKPGTPVLTQDMVSMVVSTGGSARVSHDVAPRFRVGDRVRTKNFNPTTHTRLPRYARDKVGRIEIAHGVFITPDTAAHGLGEHPQHVYSVSFTAQELWGEPRPDNVFIDLWDDYLEEA
modifications: Raoultella terrigena, strain 77.1
For the molecule B1, in data set [1], the optimal temperature came to 45 °C and the “residual activity at 60° C.” value was 60-79%. The IEP in data set [2] was 3.5-3.6. Further, in data set [3], the E-value came to 47 and the enantiopreference entry is on record as “(S)”.

B2: NHase Seq ID No. 18 and 20: nitrile hydratase of Klebsiella oxytoca strain 38.1.2, α-subunit SEQ ID NO 18, β-subunit SEQ ID NO 20 (protein)
alpha: B1 alpha with E11Q, S80A, S152N, D177E, S189T
beta: MNGIHDLGGMHGLGPIPTEENEPYFHHEWERRVFPLFASLFVGGHFNVDEFRHAIERMAPTEYLQSSYYEHWLHAFETLLLAKGVITVEELWGGAKPAPCKPGTPVLTQEMVSMVVSTGGSARVSHDVAPRFRVGDWVRTKNFNPTTHTRLPRYARDKVGRIEIAHGVFITPDTAAHGLGEHPQHVYSVSFTAQALWGEPRPDKVFIDLWDDYLEEA
modifications: Klebsiella oxytoca, strain 38.1.2
In the case of B2, in data set [1], the optimal temperature turned out to be 45 °C and the “residual activity at 60° C.” value was “no activity”. The “residual activity at 55° C.” value in data set [1] (55° C.) is recorded as “about 20%”. Also, in data set [3], the E-value stood at 35 and the enantiopreference result is recorded as “(S)”.

Source of the values: patent US8470576B2, “Group of novel enantioselective microbial nitrile hydratases with broad substrate specificity” (B.R.A.I.N. AG, priority 2006, dated 2013).
